Values quoted from earlier work in paper PMC12564422.
pKd: −log10 of the molar value.

Molecular target: EGFR (epidermal growth factor receptor) (UniProt P00533)
Assay: cited
Settings: 3'-thiol; about 50 nm AuNPs, resuspended in water; aptamer M and Atto 1.2e-7 M, EGFR 880 pM, 1 h incubation; Tris-EDTA buffer listed among materials; salt, pH and …

GGACGGATTTAATCGCCGTAGAAAAGCATGTCAAAGCCGGAACCGTCC [aptamer M (EGFR-specific)]
pKd: 8.62
